From the nanobody polyreactivity screen of Harvey et al. (2022)

Test: yeast display, Sf9 membrane polyspecificity reagent, FACS + sequencing; frameworks hold sequencing errors
In short: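 Nanobodies came from a synthetic yeast display library in Saccharomyces cerevisiae BJ5465, induced with galactose for 36–48 hours and stained for 1 hour at 4 °C with 10% biotinylated, detergent-solubilized Sf9 membrane reagent. Cells were enriched on streptavidin microbeads and then FACS-sorted, with low and high (top ~1%) gates set on anti-HA fluorescence for expression and streptavidin fluorescence for reagent binding. Each polyreactivity label reflects the gate a clone came from. Genes were amplified by colony PCR, sequenced by MiSeq 2 × 250 and filtered by CDR length.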

Sequence: QVQLVESGGGLVQAGGSLRLSCASSGFIFPLYAMGWYRKAPGKERELVAAITWRGDTTSYADSVKGRFTISRDNAKNTVYLLMIRLKPEDNAVYYCNARGYFGWYAMDYWGQGTQVTVSS
- polyreactivity (PSR sort gate): high polyreactivity

Sequence: QVQLVESGGGLVQAGGSLRLSCAASGRIFGQYAMGWYRQAPGKERELVAAISWRGGTTYYADSVKGRITISRDKAKNTVYLQMNSLKPVDTAVYYCNADVWVYPYDYWGQGTQVTVSS
- polyreactivity (PSR sort gate): low polyreactivity

Sequence: QVQLVESGGGLVQAGGSLRLSCAASGLIFRPYTMGWYRPAPGKERELVATISGSGASTNYADSVKGRFTISRDNAKNTVYLQMNSLKPEDTAVYYCKGRSYSRMYYWGQGTQVTVSS
- polyreactivity (PSR sort gate): high polyreactivity

Sequence: QVQLVDSGGGVVQAGGSLRLSCAASGFIFSGYAMGWYRPAPGKERELVAVISRGGGSTSYADSVKGRFTISRDNAKNTVYLQMNSLKPEDTAVYYCAAVYYPLSVDNDYWGQGTQVTVSS
- polyreactivity (PSR sort gate): high polyreactivity

Sequence: QVQLVESGGGLVQAGGSLRLSCAASGIIFGRYAMGWYRQAPGKERELVAAITRSGGRTYYADSVKGRFTISRDNAKNTVYLQMNSLKPEDTAVYYCAADASGHSYDYWGQGTQVTVSS
- polyreactivity (PSR sort gate): high polyreactivity

Sequence: QVQLVESGGGLVQAGGSLRLSCAASGITFDSYAMGWYRQAPGKEREFVAAISRSGGSTYYADSVKGRFTISRDNAKNTVYLQMNSLKPEDTAVYYCAVSLGRGSSWKLGYWGQGTQVTVSS
- polyreactivity (PSR sort gate): high polyreactivity

Sequence: QVQLVESGGGLVQAGGSLRLSCAASGSTFDINAMGWYRQAPGKERELVAAINWSGDSTYYADSVKGRFTISRDTAKNTVYLQMNSLKPEDTAVYYCNADTIVAWFDIFEEMDSWGQGTQVTVSS
- polyreactivity (PSR sort gate): low polyreactivity

Sequence: QVQLVESGGGLVQAGGSLRLSCAASGRIFNNYAMGWYRQAPGKERELVASITSGGSTNYADSVKGRFTISRDNAKNTVYLHMNSLKPEDTAVYYCNAPRGNRYHTGGYWGQGTQVTVSS
- polyreactivity (PSR sort gate): low polyreactivity

Sequence: QVQLVESGGGLVQAGGSLRLSSAASGSIFAWYGMGWYRQAPGKERELVAAISTAGSTNYADSVKGRFTISRDNAKNTVYLQMNSLKPEDTAVYYCAKKSSWYYPERFDYWGQGTQVTVSS
- polyreactivity (PSR sort gate): low polyreactivity

Sequence: QVQLEESGGGIVQAGGSLRLSCASSGFIFKAYAMVWSRQAPGKERDLVAVITGSSGRTYADSVKGRFTISRDNAKNTVYLQMNSLKPEDTAVYYCAADLRKSKYRYWRRYDYWGQGTQVTVSS
- polyreactivity (PSR sort gate): high polyreactivity

Sequence: QVQLVESGGGLVQAGGSLRLSCAASGRIFFVNTMGWYRQAPVKERELVATISCSGGSTYYADSVKGRFTISRDNAKNTVYLQMNTLKPEDTAVYYCNRSLTGYDELGYPVPYTYDYWGQGTQVTVSS
- polyreactivity (PSR sort gate): low polyreactivity

Sequence: QVQLVESGGGLVQAGGSLRLSCAASGFTFWYNAMGWYRQAPGKERELVAAITSAGSTSYADSVKGRFTISRDNAKNTVYLQMNSLKPEDTAVYYCNADLASSFSRANKYDYWGQGTQVTVSS
- polyreactivity (PSR sort gate): low polyreactivity

Sequence: QVQLVESGGGLVQAGGSLRLSCAASGRIFLSYAMGWYRQAPGKERELVAAISQSGSSKYYADSVKGRFTISRDNAKNTVYLQMNSLKPEDTAVYYCAARTGRKYYYWGQGTQVTVST
- polyreactivity (PSR sort gate): high polyreactivity

Sequence: QVQLVESGGGLVQAGGSLRLSCAASGRIFAYYAMGWYRQAPGKERELVAAISRSGVSTYYADSVKGRFTISRDNAKNTVYLQMNSLKPEDTAVYYCDARWRSGFTSVDYWGQGTQVTVSS
- polyreactivity (PSR sort gate): low polyreactivity

Sequence: QVQLVESVGGLVQAGGSLRLSCAASGSIFVKNAMGWYRQAPGKERELVAVITIRTATTYYADSVKGRFTISRDNAKNTVYLQMNSLKPEDTAVYYCAAAKRQRGYLQREYDYWGQGTQVTVSS
- polyreactivity (PSR sort gate): low polyreactivity

Sequence: QVQLVESGGGLVQAGGSLRLSCAASGITFYYYAMGWYRQAPGKERELVAAIDTDGSTYYADSVKGRFTISRDNAKNTVYLQMNSLKPEDTAVYYCAAEIEYYPYSGYIYDYWGQGTQVTVSS
- polyreactivity (PSR sort gate): high polyreactivity

Sequence: QVQLVESGGGLVQAGGSLRLSCAASGIIIDYYTMGWYRQAPGKERELVAAINKSGGSTYADSVKGRFTISRDNAKNTVYLQMNSLKPEDTAVYYCAAEVDYSYSPEYARKYYYWGQGTQVTVSS
- polyreactivity (PSR sort gate): low polyreactivity

Sequence: QVQLVESGGGLVQAGGSLRLSCAASGSTFFPNGMGWYRQAPGKERELVAAITQDGGSTYYADSVKGRFTISRDKAKNTVYLQMNSLKPEDTAVYYCAASAGPYYEYGYWGQGTQVTVSS
- polyreactivity (PSR sort gate): low polyreactivity

Sequence: QVQLVESGGGLVQAGGSLRLSCAASGSILWSYAMGWYRQAPGKERELVAAISGSTGSTYYADSVKGRFTISRDNAKNTVYLQMNSLKPEDTAVYYCAAEYYEDYDDYDYWGQGTQVTVSS
- polyreactivity (PSR sort gate): low polyreactivity

Sequence: QVQLVESGGGLVQAGGSLRLSCAASGRTFYDYAMGWYRQAPGKERELVAAITSGGSTNYADSVKGRFTISRDNAKNTVYLQMNSLKPEDTAGYYCAADDFYVWGFDMNYWGQGTQVTVSS
- polyreactivity (PSR sort gate): high polyreactivity

Sequence: QVQLVESGVCLVQAGGSLRLSCAASGIIISTYAMGWYRQAPGKERELVAAITWGGTRTNYADSVKGRFTISRDNAKNTVYLQMKSLKPEDTAVYYCAASYVRDSYTHGSWGQGTQVTVSS
- polyreactivity (PSR sort gate): low polyreactivity

Sequence: QVQLVESGGGLVQAGGSLRLSCAASGIILGPYAMGWYRQAPGKERELVAAISWRGGSTYYADSVKGRFTISRDNAKNTVYLQMNSLKPEDTAVYYCATASRTSRTGWAGYYWGQGTQVTVSS
- polyreactivity (PSR sort gate): high polyreactivity

Sequence: QVQLVESGRGLVQAGGSLRLSCAASGSTFNRNAMGWYRQAPGKERELVAAITIRGGSTSYADSVKGRFTISRDNAKNTVYLQMNSLKPEDTAVYYCNRQSRNAGGYYWGQGTHVTVSS
- polyreactivity (PSR sort gate): low polyreactivity

Sequence: QVQLVESGGGLVQAGGSLRLICAASGIIFYVNAMGWYRQAPGKERELVAAITRGGTTYYADSVKGRFTISRDNAKNTVYLQMNSLKPEDTAVYYCAARLRYTTGIYYYWGQGTQVTVSS
- polyreactivity (PSR sort gate): high polyreactivity

Sequence: QFQLVESGGGLVQAGGSLRLSCAASGSTFWTNAMGWYRQAPGKERELVAVISRGGSTNYADSVKGRFTISRDNEKNTVYLQMNSLKPEDTAVFYCAAASYLYGRYYYWGQGTQVTVSS
- polyreactivity (PSR sort gate): high polyreactivity

Sequence: QVQLVESGGGLVQAGGSLRLSCAASGSIFYLYAMGWYRQAPGKERELVAAISWSTSGTYYADSVKGRFTISRDNAKNTVYLQMNSLKPEDTAVYYCAADVYSPWWYDYWGQGTQVTVSS
- polyreactivity (PSR sort gate): high polyreactivity

Sequence: QVQLVESGGGLVQAGGSLRLSCAASGSTFYNNAMGWYRQAPGKERELVATISASSTSTYYADSVKGRFTISRDNAKNTVYLQMNSLKPEDTAVYYCAKDYVHGSTYGYYWYGYDYWAQGTQVTVSS
- polyreactivity (PSR sort gate): low polyreactivity

Sequence: QVQLVESGGVLVQAGGSLRLSCAASGSTFLWYAMGWYRQAPGKEREMVAAISRSGGNTYYADSVKGRFTISRDNAKTSVYLEMNSLNPEDTAVYDCAARKLYGSPEHGYGGQGTQVTVSS
- polyreactivity (PSR sort gate): high polyreactivity

Sequence: QVQLVESGGGLVQAGGSLRLSCAASGRTFYPYAMGWYRQAPGKERELVAAINWRDGSTYYADSVKGRFTISRDNAKNTVYLQMNSLKPEDTAVYYCAADYYWWQYDYWGQGTQVTVSS
- polyreactivity (PSR sort gate): high polyreactivity

Sequence: QVQLVESGGGLVQAGGSLRISCAASGSTFPYYAMGWYRQAPGKERELVAAISQNGGSTYYADSVKGRFTISRDNAKNTVYLQMNSLKPEDTAGYYCNRTARKLRTVHSSVVGLDYWGQGTQVTVSS
- polyreactivity (PSR sort gate): low polyreactivity

Sequence: QVQLVESGGGLVQAGGSLRLICAASGRIFYSYSMGWSRPAPGKERELVATITTSGKTYYADSVNGRFTISRDNAKNTVYLQMNSLIPDDTAVYYCNAGWDLVYGYYPRRKIFDYWGQGTQVTVSS
- polyreactivity (PSR sort gate): high polyreactivity

Sequence: QVQLVESGGGLVQAGGSLRLSCAASGRTFGWNAMGWSRQAPGKERELVAAISRTGNTYYADSVKGRFTISRDNAKNTVYLQMNSLKPEDTAVYYCAKGRYYTPTYFRGVDLYDYWGQGTQVTVSS
- polyreactivity (PSR sort gate): low polyreactivity

Sequence: QVQLVESGGGLVQAGGSLRLSCAASGRIFDIYTMGWYRQAPGNERELVASITKRGGSTYYADSVKGRFTISRDNAKNTVYLQMNSLKPEDTAVYYCNVAGKQKPYYVTTRLDYWGQGTQVTVSS
- polyreactivity (PSR sort gate): high polyreactivity

Sequence: QVQLVESGGGLVQAGGSLRLSCAASGRIFGYNAMGWYRQAPGKERELVAAITNGGSTNYADSVKGRFTISRDNAKNTVYFHMNSLKPEDTAVYYCAVKWYPPGHDYWGQGTQVTVSS
- polyreactivity (PSR sort gate): low polyreactivity

Sequence: QVQLVESGGGLVQAGCSLRLSWAASGFTFAYYAMGWSRQAPGKERDLVASITSSGGSTYYADSVKGRFTISRDNAKNTVYLQMNSLKPEDTAVYYCNKAYRGVYYGYEYWGQGTQVTVSS
- polyreactivity (PSR sort gate): high polyreactivity

Sequence: QVQLVESGGGLVQAGGSLRLSCAASGSIFGYYAMGWYRQAPGKERELVASIRRGSSTNYADSVKGRFTISRDNAKHTVYLQMNSLKPEDTAVYYCNAVLLSYDGRGYSNLYDYWGQGTQVTVSS
- polyreactivity (PSR sort gate): low polyreactivity

Sequence: QVQLVESGGGLFQAGGSLRLSCAASGSTFAPYAMGWYRHATGKERELVAAISNSGGSTYYADSVKGRFTISRDDAKNTVYLQMNCLKPEATAVLYCATLKYPYATSQGYDFWGQCTQVTVSS
- polyreactivity (PSR sort gate): high polyreactivity

Sequence: QVQLVESGGGLVQAVGSLRLSCAASGIIFRNYAMGWYRQAPGKEREWVAAISRSGGSTYYADSVKGRFTISRDNAKNTCYLQMNSLKPEDTAVYYCNAAYWAYNGFSYLMDYWGQGTQVTVSS
- polyreactivity (PSR sort gate): low polyreactivity

Sequence: QVHLVESGGGLVQAGGSLRLICAATGFIFGSYAMGWYRQAPGKERELVAAINWSGGNTYYADSVKGRFTISRDNEKNTVYLQMNSLKPEDTAVYYCAAQYVTSRFDYWGQGTQVTVSS
- polyreactivity (PSR sort gate): high polyreactivity

Sequence: QVQLVESGGGLVQAGGSLRLSCDASGSIFSIYAMGWYRQAPGKERELVAAISSGGSTYYADSVKGRFTISRDNAKNTVYLQMNSLKPEDTAVYYCAADAAYYSGYDYWGQGTQVTVSS
- polyreactivity (PSR sort gate): low polyreactivity

Sequence: QVQLVESGGGLVQAGGSLRLSCAASGRIFCGYAMGWYRQAPGKERELVAAITSGGRTYYADSVKGRFTISRDNAKNTVYLQMNSLKPEDTAVYYCAAVYVPYYWLGRSRGLDYWGQGTQVTVSS
- polyreactivity (PSR sort gate): high polyreactivity

Sequence: QVQLVESGGGLVKAGGSLRLSCAASGYNFIVYTMGWYRQAPGKERELVAAISSGGITDYADSVKGRFTISRDNAKNTDYLQMNSLNPEDTAVYYWGQGTQVTVSS
- polyreactivity (PSR sort gate): low polyreactivity

Sequence: QVQLVESGGGLVQAGGSLRLSCAASGLTSLGNAMGWYRQAPGKERELVAAITRTGTSTYYADSVKGRFTISRDNAKNTVYLQMNSLKPEDTAVYYCAALDRYSTEYKYQLYKQEYDYWVQGTQVTVSS
- polyreactivity (PSR sort gate): low polyreactivity
